Measurements: patent US20230346885A1 (published 2023)
Values belong to the binder of their own block, whether it stands above or below them.

Tests used:
Test in all cases: binding, other
[1] = biological target: T1, MAGEB2 peptide on HLA (human)
T1 peptide: KVLEFLAKV

[2] = biological target: T2, KLK4 peptide on HLA (human)
T2 peptide: FQNSYTIGL

[3] = biological target: T3, KLK4 peptide on HLA (human)
T3 peptide: KLYDPLYHPSM

[4] = biological target: T4, KLK3 peptide on HLA (human)
T4 peptide: KVMDLPTQEPAL

[5] = biological target: T5, MAGEC1 peptide on HLA (human)
T5 peptide: FLAMLKNTV

[6] = biological target: T6, MAGEC1 peptide on HLA (human)
T6 peptide: ILQSSPESA

[7] = biological target: T7, NPSR1 peptide on HLA (human)
T7 peptide: VIIQNLPAL

B1: TCR of SEQ ID NOs 419 and 420 (TCR, V domains shown)
Valpha: KQEVTQIPAALSVPEGENLVLNCSFTDSAIYNLQWFRQDPGKGLTSLLLIQSSQREQTSGRLNASLDKSSGRSTLYIAASQPGDSATYLCAVSGGTTDSWGKLQFGAGTQVVVTP
Vbeta: NAGVTQTPKFQVLKTGQSMTLQCAQDMNHEYMSWYRQDPGMGLRLIHYSVGAGITDQGEVPNGYNVSRSTTEDFPLRLLSAAPSQTSVYFCASSFTPYEGYTFGSGTRLTVV
- binding result [1]: recognises

B2: TCR of SEQ ID NOs 423 and 424 (TCR, V domains shown)
Valpha: KQEVTQIPAALSVPEGENLVLNCSFTDSAIYNLQWFRQDPGKGLTSLLLIQSSQREQTSGRLNASLDKSSGRSTLYIAASQPGDSATYLCAVSGGATDSWGKLQFGAGTQVVVTP
Vbeta: NAGVTQTPKFQVLKTGQSMTLQCAQDMNHEYMSWYRQDPGMGLRLIHYSVGAGITDQGEVPNGYNVSRSTTEDFPLRLLSAAPSQTSVYFCASSYSPWTEAFFGQGTRLTVV
- binding result [1]: recognises

B3: TCR of SEQ ID NOs 411 and 412 (TCR, V domains shown)
Valpha: KQEVTQIPAALSVPEGENLVLNCSFTDSAIYNLQWFRQDPGKGLTSLLLIQSSQREQTSGRLNASLDKSSGRSTLYIAASQPGDSATYLCAVSGGSYIPTFGRGTSLIVHP
Vbeta: NAGVTQTPKFRVLKTGQSMTLLCAQDMNHEYMYWYRQDPGMGLRLIHYSVGEGTTDKGEVPDGYNVSRSTTEDFPLRLLSAAPSQTSVYFCASRKAGYGYTFGSGTRLTVV
- binding result [2]: recognises

B4: TCR of SEQ ID NOs 399 and 400 (TCR, V domains shown)
Valpha: KQEVTQIPAALSVPEGENLVLNCSFTDSAIYNLQWFRQDPGKGLTSLLLIRSSQREQTSGRLNASLDKSSGRSTLYIAASQPGDSATYLCAVMSSQGGSEKLVFGKGTKLTVNP
Vbeta: NAGVTQTPKFRVLKTGQSMTLLCAQDMNHEYMYWYRQDPGMGLRLIHYSVGEGTTAKGEVPDGYNVSRLKKQNFLLGLESAAPSQTSVYFCASKGLVADTIYFGEGSWLTVV
- binding result [3]: recognises

B5: TCR of SEQ ID NOs 391 and 392 (TCR, V domains shown)
Valpha: QKEVEQNSGPLSVPEGAIASLNCTYSDRGSQSFFWYRQYSGKSPELIMSIYSNGDKEDGRFTAQLNKASQYVSLLIRDSQPSDSATYLCAVNSPGNARLMFGDGTQLVVKP
Vbeta: NAGVTQTPKFQVLKTGQSMTLQCAQDMNHEYMSWYRQDPGMGLRLIHYSVGAGITDQGEVPNGYNVSRSTTEDFPLRLLSAAPSQTSVYFCASSYWRGGLEQYFGPGTRLTVT
- binding result [4]: recognises

B6: TCR of SEQ ID NOs 433 and 434 (TCR, V domains shown)
Valpha: KQEVTQIPAALSVPEGENLVLNCSFTDSAIYNLQWFRQDPGKGLTSLLLIQSSQREQTSGRLNASLDKSSGRSTLYIAASQPGDSATYLCAVESGNQFYFGTGTSLTVIP
Vbeta: NAGVTQTPKFQVLKTGQSMTLQCAQDMNHEYMSWYRQDPGMGLRLIHYSVGVGITDQGEVPNGYNVSRSTTEDFPLRLLSAAPSQTSVYFCASSFGQGSSPLHFGNGTRLTVT
- binding result [5]: recognises

B7: TCR of SEQ ID NOs 429 and 430 (TCR, V domains shown)
Valpha: KQEVTQIPAALSVPEGENLVLNCSFTDSAIYNLQWFRQDPGKGLTSLLLIQSSQREQTSGRLNASLDKSSGRSTLYIAASQPGDSATYLCAVRPFSGGYNKLIFGAGTRLAVHP
Vbeta: NAGVTQTPKFQVLKTGQSMTLQCTQDMNHNYMYWYRQDPGMGLKLIYYSVGAGITDQGEVPNGYNVSRSTTEDFPLRLLSAAPSQTSVYFCASSPEYGYYEQYFGPGTRLTVT
- binding result [6]: recognises

B8: TCR of SEQ ID NOs 443 and 444 (TCR, V domains shown)
Valpha: QKEVEQNSGPLSVPEGAIASLNCTYSDRGSQSFFWYRQYSGKSPELIMSIYSNGDKEDGRFTAQLNKASQYVSLLIRDSQPSDSATYLCAVNDSWGKLQFGAGTQVVVTP
Vbeta: DGGITQSPKYLFRKEGQNVTLSCEQNLNHDAMYWYRQDPGQGLRLIYYSQIVNDFQKGDIAEGYSVSREKKESFPLTVTSAQKNPTAFYLCASSMVPGFSEQFFGPGTRLTVL
- binding result [7]: recognises

B9: TCR of SEQ ID NOs 447 and 448 (TCR, V domains shown)
Valpha: QKEVEQNSGPLSVPEGAIASLNCTYSDRGSQSFFWYRQYSGKSPELIMSIYSNGDKEDGRFTAQLNKASQYVSLLIRDSQPSDSATYLCAVSAAGNKLTFGGGTRVLVKP
Vbeta: NAGVTQTPKFRILKIGQSMTLQCTQDMNHNYMYWYRQDPGMGLKLIYYSAGAGITDKGEVPNGYNVSRSTTEDFPLRLELAAPSQTSVYFCASSYFGEQYFGPGTRLTVT
- binding result [7]: recognises

B10: TCR of SEQ ID NOs 445 and 446 (TCR, V domains shown)
Valpha: KQEVTQIPAALSVPEGENLVLNCSFTDSAIYNLQWFRQDPGKGLTSLLLIQSSQREQTSGRLNASLDKSSGRSTLYIAASQPGDSATYLCAVSPVTSYDKVIFGPGTSLSVIP
Vbeta: NAGVTQTPKFRVLKTGQSMTLLCAQDMNHEYMYWYRQDPGMGLRLIYYSASEGTTDKGEVPNGYNVSRLNKREFSLRLESAAPSQTSVYFCASSYSWFGDGTEAFFGQGTRLTVV
- binding result [7]: recognises

B11: TCR of SEQ ID NOs 389 and 390 (TCR, V domains shown)
Valpha: QKEVEQNSGPLSVPEGAIASLNCTYSDRGSQSFFWYRQYSGKSPELIMSIYSNGDKEDGRFTAQLNKASQYVSLLIRDSQPSDSATYLCAVWGKSGGYNKLIFGAGTRLAVHP
Vbeta: NAGVTQTPKFGILKTGQSMTLQCAQDMNHEYMSWYRQDPGMGLRLIHYSVGAGITDKGEVPNGYNVSRSTTEDFPLRLELAAPSQTSVYFCASSYSSPLRQDNSPLHFGNGTRLTVT
- binding result [4]: recognises

B12: TCR of SEQ ID NOs 395 and 396 (TCR, V domains shown)
Valpha: KQEVTQIPAALSVPEGENLVLNCSFTDSAIYNLQWFRQDPGKGLTSLLLIQSSQREQTSGRLNASLDKSSGRSTLYIAASQPGDSATYLCAVLDSWGKLQFGAGTQVVVTP
Vbeta: NAGVTQTPKFRVLKTGQSMTLLCAQDMNHEYMYWYRQDPGMGLRLIHYSVGEGTTAKGEVPDGYNVSRLKKQNFLLGLESAAPSQTSVYFCASSGLLSPDTQYFGPGTRLKVL
- binding result [3]: recognises

The remaining lines, values ahead:

- binding result [1]: recognises
B13: TCR of SEQ ID NOs 421 and 422 (TCR, V domains shown)
Valpha: KQEVTQIPAALSVPEGENLVLNCSFTDSAIYNLQWFRQDPGKGLTSLLLIQSSQREQTSGRLNASLDKSSGRSTLYIAASQPGDSATYLCAVESDDYKLSFGAGTTVTVRA
Vbeta: NAGVTQTPKFQVLKTGQSMTLQCAQDMNHNSMYWYRQDPGMGLRLIYYSASEGTTDKGEVPNGYNVSRLNKREFSLRLESAAPSQTSVYFCASSEALGGVTDTQYFGPGTRLTVL

- binding result [6]: recognises
B14: TCR of SEQ ID NOs 425 and 426 (TCR, V domains shown)
Valpha: KQEVTQIPAALSVPEGENLVLNCSFTDSAIYNLQWFRQDPGKGLTSLLLIQSSQREQTSGRLNASLDKSSGRSTLYIAASQPGDSATYLCAVRDDYKLSFGAGTTVTVRA
Vbeta: NAGVTQTPKFRVLKTGQSMTLLCAQDMNHEYMYWYRQDPGMGLRLIHYSVGEGTTAKGEVPDGYNVSRLKKQNFLLGLESAAPSQTSVYFCASSYGPGQIYGYTFGSGTRLTVV

- binding result [6]: recognises
B15: TCR of SEQ ID NOs 427 and 428 (TCR, V domains shown)
Valpha: KQEVTQIPAALSVPEGENLVLNCSFTDSAIYNLQWFRQDPGKGLTSLLLIQSSQREQTSGRLNASLDKSSGRSTLYIAASQPGDSATYLCAVRNDYKLSFGAGTTVTVRA
Vbeta: NAGVTQTPKFRVLKTGQSMTLLCAQDMNHEYMYWYRQDPGMGLRLIHYSVGEGTTAKGEVPDGYNVSRLKKQNFLLGLESAAPSQTSVYFCASSYGPGQIYGYTFGPGTRLTVL

- binding result [4]: recognises
B16: TCR of SEQ ID NOs 393 and 394 (TCR, V domains shown)
Valpha: AQSVTQLDSHVSVSEGTPVLLRCNYSSSVPPYLFWYVQYPNQGLQLLLKYTTGATLVKGINGFEAEFKKSETSFHLTKPSAHMSDAAEYFCAVSEDGNKLVFGAGTILRVKS
Vbeta: AAGVIQSPRHLIKEKRETATLKCYPIPRHDTVYWYQQGPGQDPQFLISFYEKMQSDKGSIPDRFSAQQFSDYHSELNMSSLELGDSALYFCASRLTGVSGEGDYGYTFGSGTRLTVV

- binding result [3]: recognises
B17: TCR of SEQ ID NOs 397 and 398 (TCR, V domains shown)
Valpha: KQEVTQIPAALSVPEGENLVLNCSFTDSAIYNLQWFRQDPGKGLTSLLLIQSSQREQTSGRLNASLDKSSGRSTLYIAASQPGDSATYLCAAGGYQKVTFGTGTKLQVIP
Vbeta: NAGVTQTPKFRILKIGQSMTLQCTQDMNHNYMYWYRQDPGMGLKLIYYSVGAGITDKGEVPNGYNVSRSTTEDFPLRLLSAAPSQTSVYFCASRRPTGELFFGEGSRLTVL

- binding result [5]: recognises
B18: TCR of SEQ ID NOs 431 and 432 (TCR, V domains shown)
Valpha: KQEVTQIPAALSVPEGENLVLNCSFTDSAIYNLQWFRQDPGKGLTSLLLIQSSQREQTSGRLNASLDKSSGRSTLYIAASQPGDSATYLCAVGGYNKLIFGAGTRLAVHP
Vbeta: NAGVTQTPKFQVLKTGQSMTLQCAQDMNHNSMYWYRQDPGMGLRLIYYSASEGTTDKGEVPNGYNVSRSTTEDFPLRLLSAAPSQTSVYFCASSLDPLAEAFFGQGTRLTVV

- binding result [2]: recognises
B19: TCR of SEQ ID NOs 407 and 408 (TCR, V domains shown)
Valpha: KQEVTQIPAALSVPEGENLVLNCSFTDSAIYNLQWFRQDPGKGLTSLLLIQSSQREQTSGRLNASLDKSSGRSTLYIAASQPGDSATYLCAVRSYNTDKLIFGTGTRLQVFP
Vbeta: NAGVTQTPKFRILKIGQSMTLQCTQDMNHNYMYWYRQDPGMGLKLIYYSVGAGITDKGEVPNGYNVSRSTTEDFPLRLELAAPSQTSVYFCASSYSSWTEAFFGQGTRLTVV

- binding result [5]: recognises
B20: TCR of SEQ ID NOs 435 and 436 (TCR, V domains shown)
Valpha: KQEVTQIPAALSVPEGENLVLNCSFTDSAIYNLQWFRQDPGKGLTSLLLIQSSQREQTSGRLNASLDKSSGRSTLYIAASQPGDSATYLCAALSYNTDKLIFGTGTRLQVFP
Vbeta: NAGVTQTPKFRVLKTGQSMTLLCAQDMNHEYMYWYRQDPGMGLRLIHYSVGEGTTAKGEVPDGYNVSRLKKQNFLLGLESAAPSQTSVYFCASKDIPYTEAFFGQGTRLTVV

- binding result [2]: recognises
B21: TCR of SEQ ID NOs 409 and 410 (TCR, V domains shown)
Valpha: KQEVTQIPAALSVPEGENLVLNCSFTDSAIYNLQWFRQDPGKGLTSLLLIQSSQREQTSGRLNASLDKSSGRSTLYIAASQPGDSATYLCAVTAYNTDKLIFGTGTRLQVFP
Vbeta: NAGVTQTPKFRILKIGQSMTLQCTQDMNHNYMYWYRQDPGMGLKLIYYSVGAGITDKGEVPNGYNVSRSTTEDFPLRLLSAAPSQTSVYFCASSYYPGTSTEAFFGQGTRLTVV
